This note sets out measurements from PMC9881146.

The target of series [1] is OB1 ΔC-ter Q39A (C. glabrata). Kind of series: AUC.
The target of series [2] is Cdc13 OB1 domain without its C-terminal tail (OB1 ΔC-ter) (C. glabrata). Description: AUC.
For series [3], the target named is Cdc13_(OB234), purified, large tag removed (C. glabrata). Kind of series: AUC.
Series [4] addresses OB1 ΔC-ter A40W (C. glabrata). Description: AUC.
Series [5] deals with Cdc13_(OB23) (H10-TEV-Cdc13_(OB23)) (C. glabrata). Kind of series: mass photometry.
For series [6] the target is unchanged. Description: SEC.
For series [7] the target is unchanged. Description: AUC.
The target of series [8] is Cdc13 OB1 domain (Strep-TEV-Strep-OB1, residues 1-176) (C. glabrata). Description: AUC.
For series [9], the target named is OB1 ΔC-ter Q39A A40W (C. glabrata). Kind of series: AUC.
The target in series [10] is OB1 ΔC-ter A40W D94A (C. glabrata). Description: AUC.
The target in series [11] is Cdc13_(OB24) (H10-TEV-Cdc13_(OB24)) (C. glabrata). Description: mass photometry.
Series [12] has the same target. Description: SEC. A general note: SEC sorts molecules by how far they enter the pores of the column.
For series [13] the target is unchanged. Description: AUC.
The target in series [14] is Cdc13 OB2 domain (Strep-TEV-Strep-OB2, residues 260-396) (C. glabrata). Description: SEC.
The target in series [15] is T1, Cdc13OB23 (Candida glabrata, UniProt Q6FT40 260-593).
T1 sequence: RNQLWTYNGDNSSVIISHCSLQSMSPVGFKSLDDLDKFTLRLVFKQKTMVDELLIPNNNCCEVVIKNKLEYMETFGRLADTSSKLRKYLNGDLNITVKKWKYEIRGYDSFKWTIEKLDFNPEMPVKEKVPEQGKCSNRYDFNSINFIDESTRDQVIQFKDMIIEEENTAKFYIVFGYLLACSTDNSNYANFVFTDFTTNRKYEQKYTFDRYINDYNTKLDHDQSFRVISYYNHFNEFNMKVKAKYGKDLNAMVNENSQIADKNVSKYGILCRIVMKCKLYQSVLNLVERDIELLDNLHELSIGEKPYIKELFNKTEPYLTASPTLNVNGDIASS
Description: fluorescence polarization. On the technique in general: Fluorescence polarisation rises when a labelled molecule tumbles more slowly, as on binding a larger partner.

Series [16] concerns the target T2, Cdc13OB34 (Candida glabrata, UniProt Q6FT40 401-753).
T2 sequence: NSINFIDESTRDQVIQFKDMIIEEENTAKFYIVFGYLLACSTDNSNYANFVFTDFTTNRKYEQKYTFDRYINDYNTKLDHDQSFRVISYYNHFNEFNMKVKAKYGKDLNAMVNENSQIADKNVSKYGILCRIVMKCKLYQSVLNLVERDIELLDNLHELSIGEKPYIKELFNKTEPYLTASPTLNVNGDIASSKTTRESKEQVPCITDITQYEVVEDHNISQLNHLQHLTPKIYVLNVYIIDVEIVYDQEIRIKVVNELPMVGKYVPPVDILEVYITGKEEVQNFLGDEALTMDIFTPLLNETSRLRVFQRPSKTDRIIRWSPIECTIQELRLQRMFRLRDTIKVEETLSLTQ
Kind of series: fluorescence polarization.

The target in series [17] is T3, Cdc13OB234 (Candida glabrata, UniProt Q6FT40 260-753).
T3 sequence: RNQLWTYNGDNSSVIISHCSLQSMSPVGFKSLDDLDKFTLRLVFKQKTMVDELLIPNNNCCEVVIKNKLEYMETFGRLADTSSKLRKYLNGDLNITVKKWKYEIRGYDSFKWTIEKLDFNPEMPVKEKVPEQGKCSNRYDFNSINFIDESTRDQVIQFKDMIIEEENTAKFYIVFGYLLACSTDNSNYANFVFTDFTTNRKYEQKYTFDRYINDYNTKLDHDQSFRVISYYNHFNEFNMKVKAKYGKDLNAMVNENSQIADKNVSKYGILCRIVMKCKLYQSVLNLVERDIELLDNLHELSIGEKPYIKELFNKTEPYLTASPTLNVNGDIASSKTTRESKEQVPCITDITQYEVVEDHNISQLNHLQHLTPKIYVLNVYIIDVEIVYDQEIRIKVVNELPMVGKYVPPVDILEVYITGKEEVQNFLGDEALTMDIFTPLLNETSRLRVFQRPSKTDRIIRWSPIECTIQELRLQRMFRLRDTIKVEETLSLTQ
Kind of series: fluorescence polarization.

In series [18] the target is T4, OB3 (Candida glabrata, UniProt Q6FT40 401-593).
T4 sequence: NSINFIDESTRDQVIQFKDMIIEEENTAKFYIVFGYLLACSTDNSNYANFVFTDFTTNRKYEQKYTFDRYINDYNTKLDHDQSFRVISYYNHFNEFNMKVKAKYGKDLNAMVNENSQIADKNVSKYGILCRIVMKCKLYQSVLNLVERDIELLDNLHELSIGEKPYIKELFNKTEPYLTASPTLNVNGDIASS
Description: EMSA. For orientation: Mobility shift assays separate free from complexed probe on a gel.

In series [1], OB1 ΔC-ter Q39A (domain or fragment) registered a relative abundance of species 1 of 95.8%, a relative abundance of species 2 of 3.1% and a relative abundance of species 3 of 1.1%.
As for “Cdc13 OB1 domain without its C-terminal tail (OB1 ΔC-ter) (domain or fragment)”, in series [2], the relative abundance of species 1 is 95%, the relative abundance of species 2 amounted to 4% and the relative abundance of species 3 came out at 1%.
As to “Cdc13_(OB234), purified, large tag removed (domain or fragment)”, the stoichiometry N (in general, the number of molecules, sites or subunits per partner or assembly) in series [3] amounted to 2.
On to OB1 ΔC-ter A40W (domain or fragment), for which, in series [4], the relative abundance of species 1 is 97.9% and the relative abundance of species 2 was 2.1%.
As for “Cdc13_(OB23) (H10-TEV-Cdc13_(OB23)) (domain or fragment)”, the stoichiometry N in series [5], in [6] and in series [7] was 2 each time.
On to “Cdc13 OB1 domain (Strep-TEV-Strep-OB1, residues 1-176) (domain or fragment)”, for which, in [8], the relative abundance of species 1 (monomer) came to 72%, the relative abundance of species 2 worked out at 4%, the relative abundance of species 3 turned out to be 3% and the relative abundance of species 4 was determined as 4.5%. Also, the relative abundance of species 5 in series [8] was determined as 2%.
In [9], “OB1 ΔC-ter Q39A A40W (domain or fragment)” registered a relative abundance of species 1 of 97.8% and a relative abundance of species 2 of 2.2%.
As for “OB1 ΔC-ter A40W D94A (domain or fragment)”, in series [10], the relative abundance of species 1 came out at 97% and the relative abundance of species 2 is 3%.
Consider “Cdc13_(OB24) (H10-TEV-Cdc13_(OB24)) (domain or fragment)”, for which the stoichiometry N in [11], in [12] and in [13] was 2 each time.
Molecule “Cdc13 OB2 domain (Strep-TEV-Strep-OB2, residues 260-396) (domain or fragment)” returned a stoichiometry N in series [14] of 2.

B1: 6FAM-CgTelo (ssDNA)
DNA: TGTGGGGTCTGGGTGCTGTGGGGTCTGGGTGCTGTGGGGTCTGGGTGC
Regarding B1, the Kd – broadly, the equilibrium constant for the complex coming apart – in series [15] turned out to be 28.5 ± 3.8 nM; in [16] it was 299 ± 41 nM; in [17], 13.5 ± 1.7 nM.

B2: polyT (ssDNA)
DNA: TTTTTTTTTTTTTTTTTTTTTTTTTTTTTTTTTTTTTTTTTTTTTTTT
B2: the binding result in series [18] is reported as “no binding”.
